In US20200239586A1 (LA TROBE UNIVERSITY, published 2020):

T1: human Fn14 (human, UniProt Q9NP84 28-129)
T1 sequence: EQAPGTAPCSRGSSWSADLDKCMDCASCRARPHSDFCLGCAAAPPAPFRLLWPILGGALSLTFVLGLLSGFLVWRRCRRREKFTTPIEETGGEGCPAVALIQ

T2: synthetic peptide hFn14 sub-domain 2 (human, biotin on the added C-terminal lysine; disulfide bonds as in the solution structure of He et al. 2009)
T2 construct: also called sub-domain 2 peptide
T2 peptide: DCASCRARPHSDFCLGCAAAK


How the values were obtained:
[1] = target: T1, human Fn14; test: cell-based or functional assay
[2] = target: phage expressed hFn14 mutant W42A (human, UniProt Q9NP84 28-77); test: phage ELISA (Method 2), antibody on plate, phage dilution 1/X on the x axis
phage expressed hFn14 mutant W42A, sequence (Q9NP84 28-77 W42A): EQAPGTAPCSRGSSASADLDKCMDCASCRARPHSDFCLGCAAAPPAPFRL
Source text: (§1) For mutants P59A and F63A, binding was detected using HRP-conjugated anti-M13-phage polyclonal IgG and TMB substrate. For all other mutants binding was detected using Biotin-conjugated anti-M13-phage monoclonal antibody followed by HRP-conjugated Streptavidin and TMB substrate. Optical density at 450 nm was quantified using a Spectramax spectrophotometer. Error bars for each dilution represent the standard deviation of duplicate assays. FIG. 27A wild type Fn14, FIG. 27B W42A, FIG. 27C S54A, FIG. 27D A57G, FIG. 27E P59A, FIG. 27F S61A, FIG. 27G F63A, FIG. 27H L65A. In all cases error bars represent the standard deviation. X axis=dilution of phage. Methods according to Epitope mapping using phage expressed Fn14—Method 2
(§2) The wells of Maxisorp immunoplates (Nunc) were coated overnight at 4° C. with the target monoclonal antibodies or recombinant Tweak-Fc at a concentration of 1.5 μg/ml in PBS. mAb 5G8 was used as a negative control for ELISA plates coated with tested antibodies. […] 10-fold serial dilutions of phage were made using PBS solution and phage dilutions were added to the coated, blocked ELISA plates for 1 hour, shaking at room temperature. Phage was subsequently removed from the wells and the ELISA plates were washed three times with PBS/0.05% Tween 20.
(§3) Method A: HRP-conjugated anti-M13-phage antibody (GE Healthcare) at a 1/5000 dilution in PBS was then added to the wells of the ELISA plates for 1 hour, shaking at room temperature. The antibody solution was then removed from the wells and the ELISA plates were washed four times with PBS/0.05% Tween 20. Method B: Biotin-conjugated anti-M13-phage antibody (GE Healthcare) diluted in PBS was then added to the wells of the ELISA plates for 1 hour shaking at room temperature. The antibody solution was then removed from the wells and the ELISA plates were washed three times with PBS/0.05% Tween 20. HRP-conjugated Streptavidin diluted in PBS was then added to the wells of the ELISA plates for 1 hour, shaking at room temperature. The solution was then removed from the wells and the ELISA plates were washed three times with PBS/0.05% Tween 20. ELISAs were developed using TMB substrate and the reaction was stopped using 2 M […] solution.

[3] = target: phage expressed hFn14 mutant A57G (human, UniProt Q9NP84 28-77); test: as above
phage expressed hFn14 mutant A57G, sequence (Q9NP84 28-77 A57G): as the sequence (Q9NP84 28-77 W42A) above, with A15W, A30G counted along it
Source text: as §1, §2, §3

[4] = target: phage expressed hFn14 mutant P59A (human, UniProt Q9NP84 28-77); test: as above
phage expressed hFn14 mutant P59A, sequence (Q9NP84 28-77 P59A): as the sequence (Q9NP84 28-77 W42A) above, with A15W, P32A counted along it
Source text: as §1, §2, §3

[5] = target: phage expressed hFn14 mutant S61A (human, UniProt Q9NP84 28-77); test: as above
phage expressed hFn14 mutant S61A, sequence (Q9NP84 28-77 S61A): as the sequence (Q9NP84 28-77 W42A) above, with A15W, S34A counted along it
Source text: as §1, §2, §3

[6] = target: T2, synthetic peptide hFn14 sub-domain 2; test: ELISA, synthetic biotin peptide on neutravidin plate; antibody concentration not given
Source text: FIG. 21B is a graphical representation showing reactivity of anti-Fn14 mAbs CRCBT-06-001, CRCBT-06-002, CRCBT-06-003, CRCBT-06-004, CRCBT-06-005, CRCBT-06-006, CRCBT-06-007 and ITEM-1 with a synthetic peptide representing sub-domain 2 of Fn14. Plates were coated with sub-domain 2 peptide and various dilutions of antibody were allowed to bind, bound antibody was detected with anti-mouse HRP and TMB substrate. The average of duplicate readings are plotted, error bars represent standard deviations. The ELISA was repeated to ensure consistent results. The vertical line at 5 ng/ml within the linear part of the curves is the point at which a comparison of the reactivity of each mAb was analyzed.
The ELISA was performed essentially according to the manufacturer's recommended protocol (Pierce). Briefly, peptide was coated onto wells (in duplicate) at 1-10 μg/ml for 2 hours at room temperature. Wells were washed in PBS/0.05% Tween 20/0.1% BSA 3 times and dilutions of each antibody were added in wash buffer for 1 hour with gentle agitation. After another three washes anti-mouse HRP-conjugated to horse radish peroxidase (HRP; Chemicon) was added at 1/1000 dilution for 1 hour shaking. […] Optical density at 450 nm was quantified using a Spectromax absorbance spectrophotometer.

[7] = target: phage expressed hFn14 mutant L65A (human, UniProt Q9NP84 28-77); test: phage ELISA (Method 2): antibody coated on the plate, 10-fold dilutions of phage displaying hFn14 L65A; biotin anti-M13 antibody, streptavidin-HRP, TMB, OD 450 nm; x axis = dilution of phage
Source text: as §1
as §2, with “20. […]” for “20.”

[8] = target: phage expressed hFn14 mutant H60A (human, UniProt Q9NP84 28-77); test: phage ELISA (Method 2): antibody coated on the plate, 10-fold dilutions of phage displaying hFn14 H60A; biotin anti-M13 antibody, streptavidin-HRP, TMB, OD 450 nm; x axis = dilution of phage
phage expressed hFn14 mutant H60A, sequence (Q9NP84 28-77 H60A): as the sequence (Q9NP84 28-77 W42A) above, with A15W, H33A counted along it
Procedure: ELISAs showing the reactivity of mutant H60A and H60K hFn14 phage constructs with the anti-Fn14 monoclonal antibodies CRCBT-06-001, CRCBT-06-002, CRCBT-06-004 compared to ITEM-1 and ITEM-4. ITEM-2 was assessed on H60K. Binding was detected using Biotin-conjugated anti-M13-phage monoclonal antibody followed by HRP-conjugated Streptavidin and TMB substrate. Optical density at 450 nm was quantified using a Spectramax spectrophotometer. Error bars for each dilution represent the standard deviation of duplicate assays. X axis=dilution of phage. Methods according to Epitope mapping using phage expressed Fn14—Method 2.
as §2
Method A: HRP-conjugated anti-M13-phage antibody (GE Healthcare) at a 1/5000 dilution in PBS was then added to the wells of the ELISA plates for 1 hour, shaking at room temperature. […]

Row | Binder | NFκB-GFP reporter in HEK293T cells [1] | binding result [2] | binding result [3] | binding result [4] | binding result [5] | binding result [6] | binding result [7] | binding result [8]
1 | CRCBT-06-001 (antibody, IgG2b, V domains shown) VH: QVQLQQSGGGLVQPGGSMKLSCIASGFTFSSYWMSWVRQSPEKGLEWVAEIRSKSDNYATHYAESVKGKFTISRDDSKSRFFLQMNNLRAEDTGIYYCSSTYADYFHYWGQGTDLTVSS VL: DIVMTQTPASLAVSLGQRATISCRASQSVSTSTYSYMHWYQQKPGQPPKLLIKYASSLESGVPARFSGSGSGTDFTLNIHPVEEDDTATYYCQHSWEIPYTFGGGTKLEIKR | 1 µg/mL | binds | binds | binds | binds | binds | binds | binds
2 | CRCBT-06-002 (antibody, IgG1, V domains shown) VH: EVKLQQSGGGLVQPGGSMKLSCVASGFTFSYYWMNWVRQSPEQGLEWIAEIRLQSNDYPTHYAESVKGRFTISRDDSKNSVYLQMNNLRPEDTGIYYCACRYADYFDHWGQGTTLTVSS VL: DTVLTQSPASLVVSLGQRATISCRASQSVSTSDYSYIHWYQQKPGQPPKFLIKYASNRDSGVPARFSGSGSGTDFTLNIHPVEEDDTAIYYCQHSWEIPPTFGAGTKLELQR | 0.1 µg/mL | binds | binds | binds | binds | binds | binds | binds
